Test results taken from PMC6797079.

T1: NIS D237A, cerulean- or citrine-tagged, Q92911
T1 chain: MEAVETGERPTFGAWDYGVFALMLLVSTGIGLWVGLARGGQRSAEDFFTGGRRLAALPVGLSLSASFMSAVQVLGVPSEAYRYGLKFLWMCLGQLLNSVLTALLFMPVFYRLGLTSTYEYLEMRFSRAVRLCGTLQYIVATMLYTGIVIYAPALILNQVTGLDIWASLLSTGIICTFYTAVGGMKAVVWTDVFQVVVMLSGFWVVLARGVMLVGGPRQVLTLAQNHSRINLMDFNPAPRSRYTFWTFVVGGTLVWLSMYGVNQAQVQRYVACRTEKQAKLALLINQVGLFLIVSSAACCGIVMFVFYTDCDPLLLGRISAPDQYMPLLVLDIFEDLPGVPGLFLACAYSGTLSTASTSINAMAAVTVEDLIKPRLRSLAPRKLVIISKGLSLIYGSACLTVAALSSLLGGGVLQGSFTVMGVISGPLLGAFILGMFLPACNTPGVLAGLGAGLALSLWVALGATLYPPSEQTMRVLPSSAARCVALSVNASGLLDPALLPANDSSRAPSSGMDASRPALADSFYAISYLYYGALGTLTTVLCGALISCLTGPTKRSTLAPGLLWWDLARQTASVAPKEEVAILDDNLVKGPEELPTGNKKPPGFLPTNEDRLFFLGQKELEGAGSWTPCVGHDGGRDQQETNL

T2: NIS T243A, cerulean- or citrine-tagged, Q92911
T2 chain: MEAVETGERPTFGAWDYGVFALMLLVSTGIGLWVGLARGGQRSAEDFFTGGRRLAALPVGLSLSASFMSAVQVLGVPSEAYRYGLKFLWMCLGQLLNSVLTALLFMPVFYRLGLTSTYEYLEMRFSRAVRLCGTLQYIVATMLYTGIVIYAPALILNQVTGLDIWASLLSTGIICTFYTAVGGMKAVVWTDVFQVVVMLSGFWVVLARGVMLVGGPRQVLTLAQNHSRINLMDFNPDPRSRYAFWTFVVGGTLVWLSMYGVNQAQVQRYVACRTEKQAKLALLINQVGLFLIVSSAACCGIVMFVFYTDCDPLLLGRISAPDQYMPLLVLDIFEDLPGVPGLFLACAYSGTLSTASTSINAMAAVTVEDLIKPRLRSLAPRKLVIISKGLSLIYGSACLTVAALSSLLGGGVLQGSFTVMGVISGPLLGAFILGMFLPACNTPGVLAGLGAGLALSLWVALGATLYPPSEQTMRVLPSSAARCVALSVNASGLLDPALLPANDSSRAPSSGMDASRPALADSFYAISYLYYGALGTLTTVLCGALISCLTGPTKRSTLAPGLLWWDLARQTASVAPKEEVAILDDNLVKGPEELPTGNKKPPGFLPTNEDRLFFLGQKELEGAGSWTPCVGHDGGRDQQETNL

T3: NIS Y242A, cerulean- or citrine-tagged, Q92911
T3 chain: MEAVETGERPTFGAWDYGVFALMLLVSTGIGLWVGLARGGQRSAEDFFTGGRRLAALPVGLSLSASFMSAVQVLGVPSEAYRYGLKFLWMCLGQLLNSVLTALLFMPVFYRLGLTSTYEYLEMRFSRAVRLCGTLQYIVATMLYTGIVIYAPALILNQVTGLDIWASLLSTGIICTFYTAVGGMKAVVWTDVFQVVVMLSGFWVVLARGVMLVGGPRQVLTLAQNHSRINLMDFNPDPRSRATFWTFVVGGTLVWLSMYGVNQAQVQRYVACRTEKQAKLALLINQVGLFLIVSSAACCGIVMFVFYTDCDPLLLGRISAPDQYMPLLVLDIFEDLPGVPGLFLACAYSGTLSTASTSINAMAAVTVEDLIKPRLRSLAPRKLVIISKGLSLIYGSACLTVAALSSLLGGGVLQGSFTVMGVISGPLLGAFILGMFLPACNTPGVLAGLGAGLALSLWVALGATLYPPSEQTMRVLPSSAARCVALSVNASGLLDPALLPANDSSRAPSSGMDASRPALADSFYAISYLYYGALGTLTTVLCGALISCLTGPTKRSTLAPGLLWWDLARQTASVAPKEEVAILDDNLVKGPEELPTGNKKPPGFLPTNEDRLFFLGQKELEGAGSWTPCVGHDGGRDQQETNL


Assays:
Assay in all cases: FRET
Conditions in all cases: chain shown with the change, n = 2, minimum of 20 cells analyzed in each n, read off a plot
[1] = target: T1, NIS D237A, cerulean- or citrine-tagged, …
[2] = target: T2, NIS T243A, cerulean- or citrine-tagged, …
[3] = target: T3, NIS Y242A, cerulean- or citrine-tagged, …

| Binder | response ([3]; HeLa cells, parent: est. 15) | response ([3]; SW1736 cells, parent: est. -10) | also measured |
| --- | --- | --- | --- |
| sodium/iodide symporter (NIS), wild type, cerulean- or citrine-tagged, Q92911 Cer:A525F; Cit:D237A (protein) MEAVETGERPTFGAWDYGVFALMLLVSTGIGLWVGLARGGQRSAEDFFTGGRRLAALPVGLSLSASFMSAVQVLGVPSEAYRYGLKFLWMCLGQLLNSVLTALLFMPVFYRLGLTSTYEYLEMRFSRAVRLCGTLQYIVATMLYTGIVIYAPALILNQVTGLDIWASLLSTGIICTFYTAVGGMKAVVWTDVFQVVVMLSGFWVVLARGVMLVGGPRQVLTLAQNHSRINLMDFNPDPRSRYTFWTFVVGGTLVWLSMYGVNQAQVQRYVACRTEKQAKLALLINQVGLFLIVSSAACCGIVMFVFYTDCDPLLLGRISAPDQYMPLLVLDIFEDLPGVPGLFLACAYSGTLSTASTSINAMAAVTVEDLIKPRLRSLAPRKLVIISKGLSLIYGSACLTVAALSSLLGGGVLQGSFTVMGVISGPLLGAFILGMFLPACNTPGVLAGLGAGLALSLWVALGATLYPPSEQTMRVLPSSAARCVALSVNASGLLDPALLPANDSSRAPSSGMDASRPALADSFYFISYLYYGALGTLTTVLCGALISCLTGPTKRSTLAPGLLWWDLARQTASVAPKEEVAILDDNLVKGPEELPTGNKKPPGFLPTNEDRLFFLGQKELEGAGSWTPCVGHDGGRDQQETNL | – | – | response ([1]; HeLa cells, parent: est. 15): 50; response ([1]; SW1736 cells, parent: est. -10): -180 |
| sodium/iodide symporter (NIS), wild type, cerulean- or citrine-tagged, Q92911 Cer:Q471A; Cit:T243A (protein) MEAVETGERPTFGAWDYGVFALMLLVSTGIGLWVGLARGGQRSAEDFFTGGRRLAALPVGLSLSASFMSAVQVLGVPSEAYRYGLKFLWMCLGQLLNSVLTALLFMPVFYRLGLTSTYEYLEMRFSRAVRLCGTLQYIVATMLYTGIVIYAPALILNQVTGLDIWASLLSTGIICTFYTAVGGMKAVVWTDVFQVVVMLSGFWVVLARGVMLVGGPRQVLTLAQNHSRINLMDFNPDPRSRYTFWTFVVGGTLVWLSMYGVNQAQVQRYVACRTEKQAKLALLINQVGLFLIVSSAACCGIVMFVFYTDCDPLLLGRISAPDQYMPLLVLDIFEDLPGVPGLFLACAYSGTLSTASTSINAMAAVTVEDLIKPRLRSLAPRKLVIISKGLSLIYGSACLTVAALSSLLGGGVLQGSFTVMGVISGPLLGAFILGMFLPACNTPGVLAGLGAGLALSLWVALGATLYPPSEATMRVLPSSAARCVALSVNASGLLDPALLPANDSSRAPSSGMDASRPALADSFYAISYLYYGALGTLTTVLCGALISCLTGPTKRSTLAPGLLWWDLARQTASVAPKEEVAILDDNLVKGPEELPTGNKKPPGFLPTNEDRLFFLGQKELEGAGSWTPCVGHDGGRDQQETNL | – | – | response ([2]; HeLa cells, parent: est. 15): -100; response ([2]; SW1736 cells, parent: est. -10): -330 |
| sodium/iodide symporter (NIS), wild type, cerulean- or citrine-tagged, Q92911 Cer:A525F; Cit:Y242A (protein) MEAVETGERPTFGAWDYGVFALMLLVSTGIGLWVGLARGGQRSAEDFFTGGRRLAALPVGLSLSASFMSAVQVLGVPSEAYRYGLKFLWMCLGQLLNSVLTALLFMPVFYRLGLTSTYEYLEMRFSRAVRLCGTLQYIVATMLYTGIVIYAPALILNQVTGLDIWASLLSTGIICTFYTAVGGMKAVVWTDVFQVVVMLSGFWVVLARGVMLVGGPRQVLTLAQNHSRINLMDFNPDPRSRYTFWTFVVGGTLVWLSMYGVNQAQVQRYVACRTEKQAKLALLINQVGLFLIVSSAACCGIVMFVFYTDCDPLLLGRISAPDQYMPLLVLDIFEDLPGVPGLFLACAYSGTLSTASTSINAMAAVTVEDLIKPRLRSLAPRKLVIISKGLSLIYGSACLTVAALSSLLGGGVLQGSFTVMGVISGPLLGAFILGMFLPACNTPGVLAGLGAGLALSLWVALGATLYPPSEQTMRVLPSSAARCVALSVNASGLLDPALLPANDSSRAPSSGMDASRPALADSFYFISYLYYGALGTLTTVLCGALISCLTGPTKRSTLAPGLLWWDLARQTASVAPKEEVAILDDNLVKGPEELPTGNKKPPGFLPTNEDRLFFLGQKELEGAGSWTPCVGHDGGRDQQETNL | 120 | -50 | – |
| sodium/iodide symporter (NIS), wild type, cerulean- or citrine-tagged, Q92911 Cer:Q471A; Cit:Y242A (protein) MEAVETGERPTFGAWDYGVFALMLLVSTGIGLWVGLARGGQRSAEDFFTGGRRLAALPVGLSLSASFMSAVQVLGVPSEAYRYGLKFLWMCLGQLLNSVLTALLFMPVFYRLGLTSTYEYLEMRFSRAVRLCGTLQYIVATMLYTGIVIYAPALILNQVTGLDIWASLLSTGIICTFYTAVGGMKAVVWTDVFQVVVMLSGFWVVLARGVMLVGGPRQVLTLAQNHSRINLMDFNPDPRSRYTFWTFVVGGTLVWLSMYGVNQAQVQRYVACRTEKQAKLALLINQVGLFLIVSSAACCGIVMFVFYTDCDPLLLGRISAPDQYMPLLVLDIFEDLPGVPGLFLACAYSGTLSTASTSINAMAAVTVEDLIKPRLRSLAPRKLVIISKGLSLIYGSACLTVAALSSLLGGGVLQGSFTVMGVISGPLLGAFILGMFLPACNTPGVLAGLGAGLALSLWVALGATLYPPSEATMRVLPSSAARCVALSVNASGLLDPALLPANDSSRAPSSGMDASRPALADSFYAISYLYYGALGTLTTVLCGALISCLTGPTKRSTLAPGLLWWDLARQTASVAPKEEVAILDDNLVKGPEELPTGNKKPPGFLPTNEDRLFFLGQKELEGAGSWTPCVGHDGGRDQQETNL | -100 | -220 | – |
